Assay results as given in patent US20100172938A1 (NEDERLANDSE ORGANISATIE VOOR TOEGEPAST …, published 2010).

Legend:
[1] = molecular target: the molecule itself; experiment: SDS-PAGE and western blot, self-association (dimer)
Text: To get further insight in the structure of SAN, vectors were constructed encoding C-terminally (SAN2, 4 and 6 carrying the first 159, 149 and 113 amino acids) or N-terminally truncated peptides (SAN7, 3 and 5 comprising the last 177, 151 and 141 amino acids). The truncated His-tagged genes were expressed in E. coli and the peptides SAN2, SAN4, SAN6 and SAN7 were purified by affinity chromatography. The peptides SAN3 and SAN5 were produced at very low levels and could not be purified probably due to increased sensitivity to E. coli proteases.
Three DNA fragments encoding C-terminally truncated SAN peptides were amplified by PCR with pBK1 (Boot et al., 1993) as template. Primer CEA1 (5′-[…]-3′, forward: SEQ ID NO. 26) was used in combination with primer SANA1 (5′-[…]-[…]-3′, reverse: SEQ ID NO. 27) to amplify SAN2, SANA2 (5′-[…]-3′, reverse: SEQ ID NO. 28) for SAN4 and SANA3 (5′-[…]-3′, reverse: SEQ ID NO. 29) for SAN6. Fragments encoding three N-terminally truncated peptides were amplified using primer SANB1 (5′-[…]-[…]-3′: SEQ ID NO. 30) for SAN3, SANB2 (5′-[…]-TT-[…]-3′: SEQ ID NO. 31) for SAN5 and SANB3 (5′-GGGGGG-[…]-3′: SEQ ID NO. 32) for SAN7, all three in combination with primer SAN1 (5′[…]-[…]-3′, reverse: SEQ ID NO. 33) and the same template. The fragments were cloned in pGEM-T and sequenced. The fragments encoding SAN2, SAN3, SAN4, SAN5, SAN6 and SAN7 were excised as BamHI-HindIII fragments and introduced in vector pQE30ΔXN (Smit et al., 2001) in frame with an N-terminal six histidine tag. Expression of gene fragments and purification of the gene products was performed as described previously (Smit et al., 2001).

[2] = molecular target: the molecule itself; experiment: SDS-PAGE and western blot, self-association

| Protein | binding result [1] | binding result [2] |
| --- | --- | --- |
| SAN6, C-terminally truncated SAN peptide, His-tagged (other) RGSHHHHHHGSGTATTINASSSAINTNTNAKYDVDVTPSVSAVAANTANNTPAIAGNLTGTISASYNGKTYTANLKADTENATITAAGSTTAVKPAELAAGVAYTVTVNDVSFNFGSENAGKTVTLG | binds |  |
| SAN4, C-terminally truncated SAN peptide carrying the first 149 amino acids, His-tagged (other) RGSHHHHHHGSGTATTINASSSAINTNTNAKYDVDVTPSVSAVAANTANNTPAIAGNLTGTISASYNGKTYTANLKADTENATITAAGSTTAVKPAELAAGVAYTVTVNDVSFNFGSENAGKTVTLGSANSNVKFTGTNSDNQTETNVSTLKVKLDQNGVAS | binds |  |
| SAN, crystallisation domain of SA-protein (amino acids 1-290), His-tagged (other, Construct from Smit et al. 2001; not shown: His-tag (detected with anti-his antibody)) ATTINASSSAINTNTNAKYDVDVTPSVSAVAANTANNTPAIAGNLTGTISASYNGKTYTANLKADTENATITAAGSTTAVKPAELAAGVAYTVTVNDVSFNFGSENAGKTVTLGSANSNVKFTGTNSDNQTETNVSTLKVKLDQNGVASLTNVSIANVYAINTTDNSNVNFYDVTSGATVTNGAVSVNADNQGQVNVANVVAAINSKYFAAQYADKKLNTRTANTEDAIKAALKDQKIDVNSVGYFKAPHTFTVNVKATSNTNGKSATLPVVVTVPNVAEPTVASVSKRI |  | binds |
| SAN7, N-terminally truncated SAN peptide, His-tagged (other) RGSHHHHHHGSGTSANSNVKFTGTNSDNQTETNVSTLKVKLDQNGVASLTNVSIANVYAINTTDNSNVNFYDVTSGATVTNGAVSVNADNQGQVNVANVVAAINSKYFAAQYADKKLNTRTANTEDAIKAALKDQKIDVNSVGYFKAPHTFTVNVKATSNTNGKSATLPVVVTVPNVAEPTVASVSKRI | binds |  |
| SAN2, C-terminally truncated SAN peptide carrying the first 159 amino acids, His-tagged (other) RGSHHHHHHGSGTATTINASSSAINTNTNAKYDVDVTPSVSAVAANTANNTPAIAGNLTGTISASYNGKTYTANLKADTENATITAAGSTTAVKPAELAAGVAYTVTVNDVSFNFGSENAGKTVTLGSANSNVKFTGTNSDNQTETNVSTLKVKLDQNGVASLTNVSIANVY | binds |  |
